According to article PMC2877398 (Structure (London, England : 1993), 2010):
“And” between values parts separate entries of the source, which are not always exact repeats. Equal entries are not always repeated.

Legend:
crystal structure = target: the molecule itself; experiment: crystal structure
[1] = target: T1, S. cerevisiae RNA guanylyltransferase Ceg1 (1–459), full length (S. cerevisiae, UniProt Q01159 1-459); experiment: SEC
T1 sequence (looked up): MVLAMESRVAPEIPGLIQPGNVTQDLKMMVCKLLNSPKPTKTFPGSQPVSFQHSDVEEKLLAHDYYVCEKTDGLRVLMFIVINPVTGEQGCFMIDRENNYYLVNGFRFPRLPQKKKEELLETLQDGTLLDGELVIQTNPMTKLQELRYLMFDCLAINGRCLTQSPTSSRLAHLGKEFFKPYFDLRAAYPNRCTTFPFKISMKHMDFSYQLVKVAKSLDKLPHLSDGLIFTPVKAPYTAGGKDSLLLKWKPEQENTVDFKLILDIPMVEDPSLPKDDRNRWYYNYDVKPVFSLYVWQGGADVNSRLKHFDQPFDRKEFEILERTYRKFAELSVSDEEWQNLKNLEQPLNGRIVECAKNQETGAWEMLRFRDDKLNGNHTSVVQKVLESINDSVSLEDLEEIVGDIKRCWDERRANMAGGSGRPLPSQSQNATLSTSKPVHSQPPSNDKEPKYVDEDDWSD

B1: S. cerevisiae RNA triphosphatase Cet1 (241–549) (domain or fragment, UniProt O13297 241-549, looked up)
chain: YRNVPIWAQKWKPTIKALQSINVKDLKIDPSFLNIIPDDDLTKSVQDWVYATIYSIAPELRSFIELEMKFGVIIDAKGPDRVNPPVSSQCVFTELDAHLTPNIDASLFKELSKYIRGISEVTENTGKFSIIESQTRDSVYRVGLSTQRPRFLRMSTDIKTGRVGQFIEKRHVAQLLLYSPKDSYDVKISLNLELPVPDNDPPEKYKSQSPISERTKDRVSYIHNDSCTRIDITKVENHNQNSKSRQSETTHEVELEINTPALLNAFDNITNDSKEYASLIRTFLNNGTIIRRKLSSLSYEIFEGSKKVM
stoichiometry N (crystal structure): 2 protomers | stoichiometry N [1]: 2 Cet1 protomers per Ceg1 (2:1) and 1 Cet1 protomers per Ceg1 (2:2)
